Results published in patent US20100204461 (published 2010).

Target: alpha-thrombin (UniProt P00734;P00734 P00734:328-363,P00734:364-622)
Test: fluorescence dequenching at 277 nM TAL2, protein ratios 1:1 to 100:1; t1/2 about 30 min at 10-fold excess; 10 mM KCl, 5 mM MgCl2, 12.5 mM Tris acetate pH 6.5

B1: TAL2 beacon with Dabcyl anchor (structured_DNA)
DNA 1: GGTTGGTTTGGTTGGCAACCTCTGCTACGTG
DNA 2: CACGTAGCAG
modifications: anchor 5' NH2-(CH2)6
B1: binds.
